The values that follow come from patent US20100286035A1, “NEUROMEDIN U DERIVATIVE” (Takeda Pharmaceutical Company Limited, published 2010).

The target of assay [1] is T1, human FM3 (NMUR1) (human).
T1 chain: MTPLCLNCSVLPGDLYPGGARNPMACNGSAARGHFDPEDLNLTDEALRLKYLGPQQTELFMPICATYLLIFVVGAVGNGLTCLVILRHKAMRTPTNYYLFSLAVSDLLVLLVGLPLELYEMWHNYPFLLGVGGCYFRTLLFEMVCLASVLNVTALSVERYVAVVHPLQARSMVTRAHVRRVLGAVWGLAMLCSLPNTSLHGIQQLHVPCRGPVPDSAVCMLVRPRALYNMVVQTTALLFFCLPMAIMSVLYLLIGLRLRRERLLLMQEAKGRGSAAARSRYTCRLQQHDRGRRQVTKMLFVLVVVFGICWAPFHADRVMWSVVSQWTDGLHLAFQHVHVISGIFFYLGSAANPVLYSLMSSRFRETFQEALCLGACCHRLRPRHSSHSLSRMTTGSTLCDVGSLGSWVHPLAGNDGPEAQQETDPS
Kind of assay: competition with 125I-NMU8, human FM3/CHO membrane fraction, filter binding. On the procedure: (§1) The protein concentrations in the FM3 and TGR1 membrane fractions were 12 and 22 μg/ml, respectively.
(§2) Namely, dilution strings of NMU derivatives and PEG conjugates were provided and diluted membrane fraction solutions (200 μl) were added. The mixture was thoroughly blended with a Vortex and the labeled ligand 2 μl (final concentration […]) was added to carry out the reaction at 25° C. for 60 min. According to the aforementioned operations, the amount of binding of the labeled ligand remaining in the filter was measured and the IC50 values were calculated using graph pad PRISM (FIG. 4A (FM3 receptor binding), FIG. 4B (TGR1 receptor binding), FIG. 4C (FM3 receptor binding), FIG. 4D (TGR1 receptor binding) Table 9).

For assay [2], the target named is human TGR1 (NMUR2) (human). As to the kind of experiment: competition with 125I-NMU8, human TGR1/CHO membrane fraction, filter binding. On the procedure:
as §1, §2

Assay [3] concerns the target T1, human FM3 (NMUR1). As to the kind of experiment: competition with 125I-NMU8, membrane fraction, filter binding; only one value in the row, read as the FM3 column. How it is done: as §1, §2
Assay [4] deals with T1, human FM3 (NMUR1). Kind of assay: Scatchard analysis, radioligand filter binding, human FM3/CHO membrane fraction. On the procedure:
as §1

Assay [5] has as its target human TGR1 (NMUR2) (human). As to the kind of experiment: Scatchard analysis, radioligand filter binding, human TGR1/CHO membrane fraction. How it is done:
as §1

*1 amine or outer side, *2 acyl side, *3 side chain or, on linkers, in order; H or OH if unused. Primed or numbered codes have the meaning given here. Where no end group is shown, it is not given here. The star is where a group is joined. KMUS = cross-linking reagent joining N-terminal amine to thiol PEG, O=C1CC([*:3])C(=O)N1CCCCCCCCCCC(=O)[*:2]; GMBS = cross-linking reagent joining N-terminal amine to thiol PEG, O=C1CC([*:3])C(=O)N1CCCC(=O)[*:2]; SMCC = cross-linking reagent joining N-terminal amine to thiol PEG; Hexanoyl(6-succinimido-3yl) = O=C1CC([*:1])C(=O)N1CCCCCC(=O)[*:2]; AMBz = omega-aminocarboxylic acid linker (structure only drawn); AU″ = omega-aminocarboxylic acid linker (structure only drawn); ACP = omega-aminocarboxylic acid linker; Traut's reagent = N=C(CCCS)*; AB = not defined here; AD = not defined here; AP = not defined here; AU = not defined here

Chain of human TGR1 (NMUR2) (human) (chain, as listed by the source): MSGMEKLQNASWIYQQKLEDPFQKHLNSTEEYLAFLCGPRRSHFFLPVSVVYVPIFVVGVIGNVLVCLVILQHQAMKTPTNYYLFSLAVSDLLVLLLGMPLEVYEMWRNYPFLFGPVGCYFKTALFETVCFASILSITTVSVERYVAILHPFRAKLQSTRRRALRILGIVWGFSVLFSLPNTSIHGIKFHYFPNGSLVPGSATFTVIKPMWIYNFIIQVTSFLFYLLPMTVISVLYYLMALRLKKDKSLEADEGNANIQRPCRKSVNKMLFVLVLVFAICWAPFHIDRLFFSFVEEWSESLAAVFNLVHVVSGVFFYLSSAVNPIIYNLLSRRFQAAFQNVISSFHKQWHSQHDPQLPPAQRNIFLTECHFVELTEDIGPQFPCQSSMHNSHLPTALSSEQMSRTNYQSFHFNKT

For orientation: IC50 means the concentration needed to halve the response being measured. Consider {(PEG20k)2-AMBz}-YFLFRPRN-NH2 [(PEG20k)2(AMBz)-NMU-8], for which the figures for the IC50 with human FM3 (NMUR1) [1] and with human TGR1 (NMUR2) [2] were 210 nM and 320 nM, respectively.

For the molecule {PEG 30 kDa-ACP}-YFLFRPRN-NH2 (also: PEG-aldehyde bound by reductive amination (NH linkage)) [PEG30k(NH-ACP)-NMU-8], the IC50 with human FM3 (NMUR1) [1] turned out to be 7.3 nM; with human TGR1 (NMUR2) [2], 7.9 nM. {PEG30k-ACP}-YFLFRPRN-NH2 [PEG30k(ACP)-NMU-8] showed an IC50 in the assay with human FM3 (NMUR1) [3] of 59 nM.

B1: PEG30k(NH-AB)-NMU-8 (peptide)
peptide: {PEG 30 kDa-AB}-YFLFRPRN-NH2
modifications: reading uncertain; also: PEG attached by reductive amination (NH link) to linker, printed as Try-Phe-Leu-Phe-Arg-Pro-Arg-Asn-NH2
As for B1, the half-maximal inhibitory concentration (IC50) with human FM3 (NMUR1) [1] is 2.4 nM; with human TGR1 (NMUR2) [2], 2.5 nM. Consider {(PEG20k)2-AD}-YFLFRPRN-NH2 (reading uncertain; also: printed as (PEG20k)2(AD)-NMU-8) [(PEG20k)2(AD)-NMU-8], for which the concentration for half-maximal inhibition (IC50) in the assay with human FM3 (NMUR1) [1] was 380 nM; with human TGR1 (NMUR2) [2] it was 730 nM.

With {PEG 30 kDa-AMBz}-YFLFRPRN-NH2 (also: PEG attached by reductive amination (NH link) to linker) [PEG30k(NH-AMBz)-NMU-8], the IC50 is 6.7 nM with human FM3 (NMUR1) [1] and 9.4 nM with human TGR1 (NMUR2) [2]. On to {(PEG20k)2-ACP}-YFLFRPRN-NH2 [(PEG20k)2(ACP)-NMU-8], for which the IC50 with human FM3 (NMUR1) [1] came to 280 nM; in the assay with human TGR1 (NMUR2) [2], 420 nM. Regarding {PEG 30 kDa-SMCC}-YFLFRPRN-NH2 [PEG30k(SMCC)-NMU-8], the half-maximal inhibitory concentration (IC50) in the assay with human FM3 (NMUR1) [1] amounted to 4.5 nM; with human TGR1 (NMUR2) [2] it was 4.3 nM. Regarding {PEG 30 kDa-AD}-YFLFRPRN-NH2 (reading uncertain; also: printed as PEG30k(AD)-NMU-8) [PEG30k(AD)-NMU-8], the figures for the IC50 with human FM3 (NMUR1) [1] and with human TGR1 (NMUR2) [2] were 130 nM and 120 nM, respectively. In the case of {PEG 30 kDa-AP}-YFLFRPRN-NH2 (reading uncertain; also: printed as PEG30k(AP)-NMU-8) [PEG30k(AP)-NMU-8], the IC50 in the assay with human FM3 (NMUR1) [3] came out at 64 nM. In the case of YFLFRPRN-NH2 [NMU-8], the IC50 in the assay with human FM3 (NMUR1) [1] came out at 0.19 nM; in the assay with human TGR1 (NMUR2) [2], 0.089 nM.

For the molecule {PEG 30 kDa-KMUS}-YFLFRPRN-NH2 [PEG30k(KMUS)-NMU-8], the figures for the concentration for half-maximal inhibition (IC50) with human FM3 (NMUR1) [1] and with human TGR1 (NMUR2) [2] were 51 nM and 26 nM, respectively.

The term Kd denotes a measure of binding affinity in units of concentration. High values mean weaker binding, low ones tighter binding. For the molecule YFLFRPRN-NH2 (also: 125I label (position not given here)) [125I-NMU8 (radiation labeled ligand)], the Kd with human FM3 (NMUR1) [4] was 164000 nM; with human TGR1 (NMUR2) [5] it was 135000 nM. {PEG 30 kDa-AMBz}-YFLFRPRN-NH2 [PEG30k(AMBz)-NMU-8]: the figures for the IC50 in the assay with human FM3 (NMUR1) [1] and with human TGR1 (NMUR2) [2] were 75 nM and 110 nM, respectively.

In turn, {PEG 30 kDa-AB}-YFLFRPRN-NH2 (reading uncertain; also: printed as PEG30k(AB)-NMU-8) [PEG30k(AB)-NMU-8] displayed a concentration for half-maximal inhibition (IC50) with human FM3 (NMUR1) [3] of 82 nM. For {PEG 30 kDa-Hexanoyl(6-succinimido-3yl)}-YFLFRPRN-NH2 [PEG30k(EMCS)-NMU-8], the half-maximal inhibitory concentration (IC50) with human FM3 (NMUR1) [1] and in the assay with human TGR1 (NMUR2) [2] was 11 nM each time. With {(PEG20k)2-AB}-YFLFRPRN-NH2 (reading uncertain; also: printed as (PEG20k)2(AB)-NMU-8) [(PEG20k)2(AB)-NMU-8], the concentration for half-maximal inhibition (IC50) in the assay with human FM3 (NMUR1) [3] was 380 nM.

As to C(PEG 30 kDa)FFLFRPRN-NH2 [PEG30k-Cys-NMU-8], the IC50 in the assay with human FM3 (NMUR1) [1] was found to be 2.3 nM; with human TGR1 (NMUR2) [2] it was 1.9 nM. For {(PEG20k)2-AP}-YFLFRPRN-NH2 (reading uncertain; also: printed as (PEG20k)2(AP)-NMU-8) [(PEG20k)2(AP)-NMU-8], the IC50 with human FM3 (NMUR1) [3] was 230 nM.

Consider {PEG 30 kDa-AP}-YFLFRPRN-NH2 (reading uncertain; also: printed as PEG30k(NH-AP)-NMU-8) [PEG30k(NH-AP)-NMU-8], for which the IC50 was found to be 6.3 nM with human FM3 (NMUR1) [1] and 6.9 nM with human TGR1 (NMUR2) [2].

As to {PEG 30 kDa-AU″}-YFLFRPRN-NH2 [PEG30k(AU)-NMU-8], the values for the IC50 in the assay with human FM3 (NMUR1) [1] and with human TGR1 (NMUR2) [2] were 60 nM and 54 nM, respectively. Taken in the same sequence, the figures for {PEG 30 kDa-AU″}-YFLFRPRN-NH2 [PEG30k(NH-AU)-NMU-8] were 18 nM and 22 nM. In turn, {PEG‑maleimide 30 kDa-Traut's reagent}-YFLFRPRN-NH2 [PEG30k(Traut)-NMU-8] registered a concentration for half-maximal inhibition (IC50) with human FM3 (NMUR1) [1] of 6.4 nM. For the molecule {(PEG20k)2}-YFLFRPRN-NH2 [(PEG20k)2-NMU-8], the half-inhibitory concentration (IC50) in the assay with human FM3 (NMUR1) [1] stood at 270 nM; in the assay with human TGR1 (NMUR2) [2], 210 nM. With {(PEG20k)2-AU}-YFLFRPRN-NH2 (reading uncertain; also: printed as (PEG20k)2(AU)-NMU-8) [(PEG20k)2(AU)-NMU-8], the IC50 amounted to 330 nM with human FM3 (NMUR1) [1] and 560 nM with human TGR1 (NMUR2) [2]. Consider C(PEG 30 kDa)FFLFRPRN-NH2 [PEG30k(NHAc)-Cys-NMU-8], for which the IC50 with human FM3 (NMUR1) [1] worked out at 18 nM; with human TGR1 (NMUR2) [2], 9.1 nM. Take {PEG 30 kDa}-YFLFRPRN-NH2 [PEG30k-NMU-8]: the IC50 in the assay with human FM3 (NMUR1) [1] is 5.7 nM; in the assay with human TGR1 (NMUR2) [2], 66 nM. For the molecule {PEG 30 kDa}-YFLFRPRN-NH2 [PEG30k-NH-NMU-8], the IC50 with human FM3 (NMUR1) [1] and with human TGR1 (NMUR2) [2] was 11 nM each time.

B2: PEG30k(NH-AD)-NMU-8 (peptide)
peptide: {PEG 30 kDa-AD}-YFLFRPRN-NH2
modifications: reading uncertain; also: PEG-aldehyde bound by reductive amination (NH linkage), printed as PEG30k(NH-AD)-NMU-8
Consider B2, for which the values for the IC50 in the assay with human FM3 (NMUR1) [1] and with human TGR1 (NMUR2) [2] were 7 nM and 32 nM, respectively. As for {PEG 30 kDa-GMBS}-YFLFRPRN-NH2 [PEG30k(GMBS)-NMU-8], the IC50 with human FM3 (NMUR1) [1] is 7.5 nM; with human TGR1 (NMUR2) [2], 4.1 nM.
